FireProtDB (doi:10.1074/jbc.274.53.37533)

B1: Cytochrome c-551, P00099 (parent)
chain: MKPYALLSLLATGTLLAQGAWAEDPEVLFKNKGCVACHAIDTKMVGPAYKDVAAKFAGQAGAEAELAQRIKNGSQGVWGPIPMPPNAVSDDEAQTLAKWVLSQK

Variants of: B1
Conditions: Pseudomonas aeruginosa (strain ATCC 15692 / DSM 22644 / CIP 104116 / JCM 14847 / LMG 12228 / 1C / PRS 101 / PAO1), pH 5, CD, structure 451C, whole UniProt chain shown

Row | Variant | ddG of mutation (higher = less stable) (50.4 °C, Thermal, HCl 10 mM) | Tm (Thermal, HCl) | change of melting temperature, mutant - wild type (higher = more stable) (Thermal, HCl) | unfolding enthalpy (van 't Hoff) (Thermal, HCl) | ddG of mutation (higher = less stable) (25 °C, GdnHCl, HCl) | denaturant m value (25 °C, GdnHCl, HCl) | denaturant midpoint (higher = more stable) (25 °C, GdnHCl, HCl)
1 | MKPYALLSLLATGTLLAQGAWAEDPEVLFKNKGCVACHAIDTKMVGPAYKDVAAKFAGRAGAEAYLAQRIKNGSQGVWGPIPMPPNAVSDDEAQTLAKWVLSQK [Q59R E65Y] | -0.5 kcal/mol | 54.7 °C | 4.3 °C | 46.2 kcal/mol |  |  | 
2 | MKPYALLSLLATGTLLAQGAWAEDPEVLFKNKGCVACHAIDTKMVGPAYKDVAAKFAGRAGAEAELAQRIKNGSQGVWGPIPMPPNAVSDDEAQTLAKWVLSQK [Q59R] | -0.5 kcal/mol | 54.7 °C | 4.3 °C | 51.3 kcal/mol |  |  | 
3 | MKPYALLSLLATGTLLAQGAWAEDPEVLAKNKGCVACHAIDTKMVGPAYKDVAAKFAGQAGAEAELAQRIKNGSQGVWGPIPMPPNAVSDDEAQTLAKWVLSQK [F29A] | -1.1 kcal/mol | 59.9 °C | 9.5 °C | 48.2 kcal/mol |  |  | 
4 | MKPYALLSLLATGTLLAQGAWAEDPEVLFKNKGCVACHAIDTKMVGPAYKDVAAKFAGQAGAEAYLAQRIKNGSQGVWGPIPMPPNAVSDDEAQTLAKWVLSQK [E65Y] | -0.6 kcal/mol | 55.5 °C | 5.1 °C | 57.4 kcal/mol |  |  | 
5 | MKPYALLSLLATGTLLAQGAWAEDPEVLFKNKGCMACHAIDTKMVGPAYKDVAAKFAGQAGAEAELAQRIKNGSQGVWGPIPMPPNAVSDDEAQTLAKWVLSQK [V35M] | -0.4 kcal/mol | 53.6 °C | 3.2 °C | 43.8 kcal/mol |  |  | 
6 | MKPYALLSLLATGTLLAQGAWAEDPEVLFKNKGCVACHAIDTKMVGPAYKDVAAKYAGRAGAEAELAQRIKNGSQGVWGPIPMPPNAVSDDEAQTLAKWVLSQK [F56Y Q59R] | -1.5 kcal/mol | 62.9 °C | 12.5 °C | 54.5 kcal/mol |  |  | 
7 | MKPYALLSLLATGTLLAQGAWAEDPEVLAKNKGCMACHAIDTKMVGPAYKDVAAKFAGQAGAEAELAQRIKNGSQGVWGPIPMPPNAVSDDEAQTLAKWVLSQK [F29A V35M] | -1.4 kcal/mol | 62.4 °C | 12 °C | 46.7 kcal/mol |  |  | 
8 | MKPYALLSLLATGTLLAQGAWAEDPEVLFKNKGCVACHAIDTKMVGPAYKDVAAKFAGQAGAEAELAQRIKNGSQGVWGPIPMPPNAVSDDEAQTLAKWILSQK [V100I] | -1 kcal/mol | 58.8 °C | 8.4 °C | 43.8 kcal/mol | -0.06 kcal/mol | 2.02 kcal/mol/M | 2.44 M
9 | MKPYALLSLLATGTLLAQGAWAEDPEVLFKNKGCVACHAIDTKMVGPAYKDVAAKYAGQAGAEAYLAQRIKNGSQGVWGPIPMPPNAVSDDEAQTLAKWVLSQK [F56Y E65Y] | -2.4 kcal/mol | 70.7 °C | 20.3 °C | 63.7 kcal/mol |  |  | 
10 | MKPYALLSLLATGTLLAQGAWAEDPEVLFKNKGCVACHAIDTKMVGPAYKDVAAKYAGQAGAEAELAQRIKNGSQGVWGPIPMPPNAVSDDEAQTLAKWVLSQK [F56Y] | -1.9 kcal/mol | 66.4 °C | 16 °C | 61.2 kcal/mol |  |  | 
11 | MKPYALLSLLATGTLLAQGAWAEDPEVLFKNKGCVACHAIDTKMVGPAYKDVAAKYAGRAGAEAYLAQRIKNGSQGVWGPIPMPPNAVSDDEAQTLAKWVLSQK [F56Y Q59R E65Y] | -2 kcal/mol | 57.9 °C | 17.5 °C | 56.4 kcal/mol |  |  | 
